assay: protease stability score; higher = more stable; yeast display proteolysis, trypsin and chymotrypsin;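 further: relative to predicted unfolded state with 0 unfolded-like and 1 meaning tenfold more protease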

Row | Sequence | protease stability score
1 | SEEEKHVHRFLSEWTRSLKTGDEQRIVRLLDPTARLFFEGREYHGMETIAHQIVHDIRHHGFTLEVEIQDFHVQGDKAEHDGILIVKVDGKEIHRKLILVVTKIDGRWFLSEVIIK | 0.923
2 | DKLEKWAEHMVHLIFRAFETGDWRMLSKYFDPDTRHHVGNFHLVGMEDFIKLARELSERLGMEIDRVHVRHFDTQGDKLTVEIIVHSRVGDKEETRETIILVSKYNGRWHLSSIEIK | 1.39
3 | DERDEHAHHFFELLLKMWETGDEHELIKFFDPDPRFIYNGKELHGREIAEEFIKEWRVHDMRVKRINVQGEKVIFDGIMDGEFNGKRIFIETHIYMTKVNGKWRTKFIEFN | 1.42
4 | DEDTKKAEEVLRMFDEAFRTGDEDILRELMDPNVRYVINGREFHGREEVTNAMRELHHRFDHFKSTHIKDHKIQGDKMDVHSTLTYHVNGKDIHVDSREVWVKVNGKWHLRKIIIH | 2.24
5 | TELEEIFRLALEYLDKIWKTGDEHTLKRMFDPTTLLVVDGKRQHGMEFWREFLERYDHFHHLEVDDYHDVNGVLRLHGVIDGTVNGRRHEIHVHIVASKVNGKWRLKSVIFH | 1.5
6 | DERTELTRNFFEEMVDTMITGNEHLEHRLADPNVRIYVGEKRIHGMERYIHQHHQWRFKDFKLKDIDTQGDKATIDGHLEGEVNGKDTRTDVEVHTLKFNGRWLIHTLRIR | 1.1
7 | DEFHHLLELFLKLLAEQSRTGDEDSFERLFDPNVRVDINGRELHGWEAYQETRDRLGIERFDLRRIHSHTVNVVNGQVHMDMRTDGVIGDKRIDRTIHIRTTKINGRWFFTHLEWE | 0.578
8 | DDDTREFEKWEKIWVEYYQTGNFDHLRRLIDPNVRSIVDGKEFHGREAMASMILEETKRADHIEMDLTRHEIIGEKMIIHSRIEIQVGDYHDHYRLELESIKVNGKWIVHRESYR | 0.039
9 | SEIEKLLIDWLEHMVRAHKTGDWQNLLNMLDPHTRLNINGQHNIGRDKLTHLIREEEDRFGVDNIELHLHLEDIDIQGEKVNMKVQRHVNVNGREYTDEVELIIVKINGRWLLESIHVH | 0.932
10 | DEDHKQSKHAFELFMHLLRTGDEEVLRRMADPNARIVVNGKDDIGREVFLRVLLEFGVDHMQIRDWELDENHIILVSELRIGEKTHTLDVHFKKINGRWIVEVNNLE | 1.25
11 | DDESEKAEHIYELLTRLMLTGDEQIIHKLMDPNVRLDVDGQEYHGREEVVSAWRRWLKEMGVDHLELKSVRLIFFNGQLHIHINGEVRFNGRKHRVHIRLVLRKIDGVWHLEELEVEYK | 1.92
12 | SEHEEYNRELSELFWHWFQTGDEEMMNKNVDPDARMIVGEKTHHGWEEFVKLLRETLKRLGADHIILRRMNVQGNKSHIDGEIRINGVTIKTELDLVVVDGRISSLRLSFH | 1.05
13 | DEIEREAKHVVHLLIHALLTGDERLFEELVDPDARLVINGRHYHGREEVNLAMKEWRLHRFEIKDFQYEWQGNKIISRIHTREDGHVDGQRVETRSELVIFLVKINGRWRMEFVEFRFS | 2.42
14 | DEIDEISKQMVRDFVHSWRTGDWKVLRELADPHALIIFNGREFHGWEHILRVFLELIRRYKNARVDIEEVIVQGDKIHIHLRIDQGDKSHTVNIHIDIIDGKLKRLEIDVT | 2.27
15 | SDDEEEVLRLMDHILHALWTGDWKHLEENMDPNVRSHINGQDVHGMERVVEFILRELKELRFEHLHIEHVEIIGNKATLHYRVDGHINGRRINRRVHLEVTMVNGRVKQVIFFNE | 2.08
16 | SRKDEHTHHLLHLFWEIFMTGDEERWTQLLDPNMRTEIDGKDLHGREDAIRFMIERLRQLGFDHMRLHHLENQGEKAHIDGTLEVGDKLVRVHFSTKIVNGRIKELTIKFH | 1.02
17 | SEDDKRLREIADLWKHAFLTGDFNLIHKLMDPHARWVVNGQHVHGMEEWEHFLERIDVFRIESSRTDHIEVYGDKVQIDGHSNVKIQIGDKKIDLITRMEIRLIIINGRYHQVEHIVR | 0.707
18 | TELREIFIHFAEMILENIQTGDEDTLDELADPNTRIDINGVTMHGREKISRHWKEHLDRYDHFRIEIKRIRSQGDFAENDVTLVIIYNGQRIRIRMEVEIIFVDGRIHSINERRE | 0.225
19 | SEDHEIIRHYFELLVESFRTGDEETTRRLADPNTRLYFNGKTLHGMEAMLEVLLEIRIEEVELHHVEVINGRVEMDGTVRGIFNGRNQEVKVTFHARKINGVWILNWVEIH | 2.12
20 | SEEEEWIRRALEILIEIIRTGDEDSSKRYVDPHVRLHIGDKEFHGREDFTRMVHELFNRVDHIEIRIHDMRIINGQAHVDTELILRQGDKEIVLRTEIVLLKFDGKWIMESVHIR | 1.29
21 | SEEDELYRHIAEHLLHLLHTGNEEILDHLLDPHVKLEINIGDKRDEFIGRHSLREWLSRFKNVKLHVHDDKVINGVNHVDGTLDINGRRTHIEIHLHVYNGKVRRLQFNIH | 1.62
22 | REEEEHLKKFIEDHIRDLRTGDEQKVADQADPHVRTRFNGVDYHGREDHMKLMKHIRFEEMRIEDVKVQGDKAHIDSIITIEVDGQRETIKVHIIIVKIDGRWLLKQSHFN | 0.396
23 | DEEKKNIERLTEILAHVIRTGDEESWERMMDPNARATQGDKVMVGRDLLEHLWRRIDVIDHVRLEPKHVHRQGDKIHIDVENEVHGTVNGVKISEKHKEILVIYKFDGRWHFHSIEIT | 0.064
24 | NEEKETADTFLRHLVHRLHTGDEDMLMRLADPHVLIIQGDKTYHGWHWFERNFLEQINRFKGLTVKVERKDVHLFENRLILEGTLHLEFNGRDVHIEQEIIVHKINGRWILTHYMLI | 0.813
25 | SEEHRESEEASHEFRRLWETGDEKDFLKLADPHTRLEVNGKDIHGMREVTEFMKRRLHHLGFKHSDVKHEHVEVFDGKVRIEMIIEIHVNGVPLHTEVLVILTKINGKWRIHSITEEIK | 0.69

Row | Sequence | protease stability score
26 | DEEDEILERLFKLWIEEFLTGDWEAFHRYFDPRTRIHIGDKHHHGRTEYEKVAKHLNKRIDHVIIIIRRMEHQGDYIKVDTESRHKIDGVDISTHYILHHRIVDGKIHEIDVIYL | 0.647
27 | DEWERLTEVMIRIFEEIVHTGDERVWEEMADPHVKVHIDGVHFHGREDLLYLLRKMGANVFDLKRSDIQGEKVYLDIQTEFNGQKRDSRFLIVKFNGRWLLESISIH | 1.47
28 | DEHETDKQLAIDLLIEVIQTGDEHTTRRLADPNVKVVIDGREFHGRDFLARMIHEMRFHRIHVEEVRVIDGVVHSNLRVRGEYNGKHVDTRSSIHIKKVNGRWVIESVLIE | 2.04
29 | TEREEDVKTAMDHLYEIIETGDWKEIHKLIDPNAKVHIDGRNLIGRELMTKIIEEMSEKYKNLRLELTHFEVQGNKVISHTNNRFDGREVRTLMILTKIDGRWIIHSINLE | 1.11
30 | SEEHTIAEEAIKHLIEILETGDFRTLHRMIDPHVRFEYGDKHLHGREILIKWFEEHWEKLGVDKVEVHVKDIEIQGNKAIVIGDIVINGQRKDTVWHLIVINGRIKMIRIEEH | 1.7
31 | SEHEEHIHKLMREWIEALLTGDEEHIEHLVDPHDRLNIDGRHYHGRENATKALHQKREQIRIEHIRVDDVKFYGDKVHVEMTVHGNINGKRIEIDTRFIIVVIDGVLRSFEFRHK | 0.122
32 | DHQEKRTTEANEMFREAIETGDEKTLTRLVDPNVKIIVGDKRYHGREWFLHLMLHEILHLRVRIHTEDYRVVDGRIEFITHLEIEIGDKTVRRETFVFVDKINGRWLYQSFQDG | 0.773
33 | DEERELLKFFLKAWSKALVTGDEQTLLDLVDPNARNVIGDKDLIGREFLEKVLREMRITEVHIEDIKFQGEFVTSDLRMRVRQGDKEFDIRVRLVVYKYDGRWVFKTFHME | 2.23
34 | SDDEHAAHLIIFIWTFALITGDEQTLKELLDPNVKNEFNGVELHGREQVEEHVRRYDWVTDFKFRVDDIQHQGEKIILDGTLVITMEFDGRREDIKSRFILIVRKVDGKWHLERLIIV | 1.86
35 | SEEEEVAWEAVEILSTFILTGDFESLNKLFDPHVRVRIGDKELHGRETTNKIFRKEREEHGIEIRHIHVHDVHVINGRIHADVEHKIRINGKEDSRRVEWIIEKYNGRWIVREIRVH | 1.35
36 | SETHKHWEEVARIIIKALETGDFRLFHKLLDPNARLHHDIGDKRVNNVGREEVVRTLKMWIDRFPNVTIELKDMRVIDGVVHHDESLNINGVTVRVHIEIIVFDGKLEEMRIEYR | 1.23
37 | TELEHDVIHAFNLIVWAIRTGDEKTYHRLVDPRVQIDIGDKHLHGREDFTRLLREIRVTVRDWDFEHVRFQGDYAILHSRLDIEINIDGRIERIDVHQILFVEKINGRWRHTRESRH | 0.366
38 | SEDEKIAEHLMHEISRSTQTGDEEMSRRLMDPNVRIDINGKQIHGWETWQKEVERVDHSHSRFQLRDVRSQGNYLDARGEFHLDLHINGRTVHIVYDVTFIILKIDGRWFLHSIKVR | 0.519
39 | DEREHDLRRAVHIHRELMMTGDESNFLSYADPNTRLEVDGQEVVGREEVFKWITNVLSRHGVELKDIRVKTMDHQGNKLILHVEIRTRIGEKDTSVDFTLVVEKVNGRWVLHSLEIH | 0.16
40 | DEENERVHQALRDWRHIHRTGDEESTRHNMDPNARLDVNGVEVHGMEKVSEMFVELRIEHLHLERVHTQGEKVEVHTHVEVRQGDKRQEVKVIIFYIKINGRWFVERFEIH | 0.85
41 | DEHEKIIKHFLELFMWALRTGDEEINRHLVDPNVRVDVNGVILIGREEVVHYLRHLQEKLGMEIEEVRVEDMSVFDGRLHVDMRIHGRIGDKHTTIETHYLILKFDGRWILEHRRIR | 2.37
42 | SEEEKILDKLMELLSRLVHTGDEKEWADLMDPDTKLHVGDKTYIGMEKVTEFLHEMRVHHLELHDKRVIGDKARVHTNLRGVIDGRDVNLETHMIITKINGKWVIHSVEVR | 1.02
43 | EEERETDHRLTEKLRRIIRTGDEEEWSKLVDPNTRVIYGDKQDHGWEAWVRILKDLGAKHIDIEHVDIVNGRVEIHSHLTIGDKHVIIHHRIVHINGKLTEIYIEIHHK | 0.694
44 | DEDEELSERVTREWLHAILTGDEDWLRRYVDPHVRVHINVDGKDRTVHGMDFLIEHLRRVPNVRFIIKHMEVETQGEKVIIRVNVRIRVGDKEHETEIILIVLKVDGRWIATSIFIHIR | 0.231
45 | SEEEKHIIELFEIWLEAIRTGDENLLLKLADPHYRVIIDVGNKHIHRHGWKEFMEWLRHFTREMRIRHLTLRDYRAVNGVFHADTESVEEIGEFELRTRMHIVLVIINGVFHSVRHKIE | 1.23
46 | DESERMVLELARLFLEDLLTGNEDLMSHLADPHAKNDINGVDLHGMEVISKHLSELRLRVLDITEERVQGDKVRIKVEVVIQYGDKWRETEVDLELYIVNGRLKSQIWTIR | 1.08
47 | DEREEIAKHLLDLLMHFSKTGDWKKIEDLFDPNTRIHINGVEHVGMEEIARHISEWRIHSIHIKHLDYQGEFIHMDGELDVEVNGRRHKTRMHIIVVKYNGRWLIHHIEVH | 2.03
48 | SHVEEESREAIERFEHLLRTGNEEELENLADPNVLLRVNGKEIWGRERAIKHIIHEMTRVKNMKLTSESFEISENHIHFKFTLTINGKIIHLEIVTKKVDGRWVIKHVEFH | 1.32
49 | DEDEHLLEMALKYFLRHWKTGDEEMIMHLADPNVRLVVGDKKHHGREELFRFVHEMGANHIEVRDSELQGNKLILHLEVNVGDKRHDIKVVIEKIDGRWHLHSLEHR | 1.65
50 | SDEDHEAHRMMRLFFEAQRTGDEHLVRKLVDPDVRTFYGEKHMHGRRHHVEILLEIRIHRLTITELRVYGEKVRMDIRVDEQIGDKRREVRFELHLVVIDGVLKVVSIDME | 0.92

— the NTF2 design screens of Basanta et al. (2020)
